{
  "source": "patent US20230330254A1",
  "about": "(Regeneron Pharmaceuticals, Inc., priority 2022, published 2023)",
  "molecules": {"B1": {"name": "REGN8051 (antibody, V domains shown)", "VH": "QVQLVESGGGVGQPGRSLRLSCAASGFTFSRNAMHWVRQAPGKGLEWVAVISYDGSNKHYADSVKGRFTISRDNSKNTLYLEMNSLRVEDTAVYYCAKGGIPFDYWGQGTLVTVSS", "VL": "DIVMTQSPLSSPVTLGQPASISCRSSQSLVHFDGNTYLSWLHQRPGQPPRLLIYKISNRFSGVPDRFSGSGAGTDFTLKISRVEPEDVGVYYCMHATQFPYTFGQGTKLEIK"}, "B2": {"name": "H2aM30341N (antibody, V domains shown)", "VH": "QVQLQQWGAGLLKPSETLSLTCAVYGGSFSGYYWSWIRQPPGKGLEWIGEINHAGSTNYNPSLKSRITISVDTSKNQFSLKLSSVTAADTAVYYCARGWYYGSGSYHRNWFDPWGQGTLVTVSS", "VL": "EIVLTQSPGTLSLSPGERATLSCRASQSVYYSYLAWYQQKPGQAPRLLIYGASNRATGIPDRFSGSGSGTDFTLTISRLEPEDFAVYYCQQYGNSPWTFGQGTKVEIK"}, "B3": {"name": "H4H30439P (antibody, V domains shown)", "VH": "QVQLVESGGGVVQPGRSLRLSCAASGFTFSGYGIHWVRQAPGKGLVWVAVIWYDGSFKYYADSVKGRFTISRDNSKNTLYLQMNSLRAEDTAVYYCARGDSSSSGRYYYYGMDVWGQGTTVTVSS", "VL": "DIQMTQSPSSLSASVGDRVTITCRASQGIRNDLGWYQQKPGTAPKRLIFAASSLQSGVPSRFSGSGSGTEFTLTISSLQPEDFATYYCLQHNNYPPTFGGGTKVEIK"}},
  "key": {"[1]": {"biological_target": "T1, hGLP1R-MMH (N-terminal region of human GLP1R) (Homo sapiens, UniProt P43220)", "T1 construct": "the N-terminal ectodomain of human GLP1R expressed with a myc-myc hexahistidine tag", "T1 sequence (P43220 24-139 limits assumed)": "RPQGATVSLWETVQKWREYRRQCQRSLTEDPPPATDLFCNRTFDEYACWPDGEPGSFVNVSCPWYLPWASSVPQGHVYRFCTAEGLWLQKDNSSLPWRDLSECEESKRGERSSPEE", "assay": "Biacore binding kinetics (surface plasmon resonance)", "settings": "25° C.; for Ka: association rate", "experimental": "The equilibrium dissociation constant (KD) for GLP1R binding to different unconjugated GLP1R monoclonal antibodies (mAbs) or to GLP1R antibody tethered drug conjugates (ATDCs) was determined using a real-time surface plasmon resonance biosensor using a Biacore 3000, Biacore S200, Biacore 4000, Biacore T-200, or a Sierra Sensor MASS-2 instrument. All binding studies were performed in 10 mM HEPES, 150 mM NaCl, 3 mM EDTA, and 0.05% v/v Surfactant Tween-20, pH 7.4 (HBS-ET) running buffer at 25° C. The Biacore CM5 sensor chip surface was first derivatized by amine coupling with human Fc specific mouse mAb (REGN2567) to capture different GLP1R mAbs or ATDCs. Different concentrations (100, 90, 33.3, 30, 11.1, 10, 3.7, 3.3 and 1.1 nM) of the N-terminal region of human GLP1R expressed with a myc-myc-hexahistidine tag (“hexahistidine tag” disclosed as SEQ ID NO: 441) (hGLP1R-MMH) prepared in HBS-ET running buffer were injected over the GLP1R mAb captured surface for 240 or 300 sec at a flow rate of 50 μL/min and their dissociation in HBS-ET running buffer was monitored for 10 minutes. At the end of each cycle, the GLP1R mAb or ATDC capture surface was regenerated using a 10 sec injection of 20 mM phosphoric acid.\nThe association rate (ka) and dissociation rate (kd) were determined by fitting the real-time binding sensorgrams to a 1:1 binding model with mass transport limitation using Scrubber 2.0c curve-fitting software. Binding dissociation equilibrium constant (KD) and dissociative half-life (t %2) were calculated from the kinetic rates as: […]"}, "HEK293/CRE-Luc cells": {"test_system": "HEK293/CRE-Luc cells", "assay": "Flow cytometry cell binding, HEK293/CRE-Luc control cells (Example 18)", "design": "species or system human", "settings": "Table 30, control cells lacking GLP1R; for EC50: no unit printed in table (text reads values as M); for HEK293/CRE-Luc Flow S/N: signal to noise", "experimental": "GLP1R agonist linker payloads were conjugated to anti-GLP1R antibodies via N-terminal heavy or light chain Glutamine (Q) tags. Several resulting anti-GLP1R-GLP1R agonist antibody tethered drug conjugates (ATDCs) and their unconjugated parental antibodies were tested for cell-based binding activity. The cell surface binding of the anti-GLP1R ATDCs to human GLP1R (HEK293/CRE-Luc/hGLP1R), cynomolgus GLP1R (HEK293/CRE-Luc/mfGLP1R), and control cells lacking expression of GLP1R (HEK293/CRE-Luc) was assessed via flow cytometry. For the assay, 61,000-230,000 cells were suspended in PBS, w/2% FBS and 0.2% sodium azide (staining buffer) in 96 well V-bottom plates and incubated for 30 minutes at 4° C. with three-fold serial dilutions of the anti-GLP1R ATDCs, non-binding control ATDCs, or unconjugated anti-GLP1R antibodies. The last well in each row of the plate served as a blank control containing only secondary antibody and was plotted as a continuation of the 3-fold serial dilution. […] Cells were then washed once and stained with a cell viability dye (Live/dead Fixable Green Dead Cell Stain Kit for 488 nm excitation, Molecular Probes cat #L34970) at 1× in PBS for 20 minutes at 4° C. Cells were washed once in staining buffer, fixed for 20 minutes at 4° C. using a 50% solution of Cytofix (BD Biosciences, Cat #554655) diluted in PBS, and washed again in staining buffer. Samples were filtered through Pall 96 well plate PP/PE mesh filter system and collected in Costar 96 well plate. Samples were run on the iQue flow cytometer (Intellicyte) and results were analyzed using Forecyte analysis software (Intellicyte) to calculate the mean fluorescent intensity (MFI) after gating for live cells. EC50 values were determined using a four-parameter logistic equation over a 10-point dose response curve (GraphPad Prism). The signal to noise (S/N) was determined by taking the ratio of the highest MFI on the dose response curve to the MFI in the secondary alone wells."}, "human GLP1R": {"biological_target": "T2, human GLP1R (Homo sapiens, UniProt P43220)", "T2 construct": "engineered to express full-length human GLP1R, cynomolgus GLP1R; expressed in transfected cells; host or cells: HEK293/CRE-Luc", "T2 sequence (P43220 24-463)": "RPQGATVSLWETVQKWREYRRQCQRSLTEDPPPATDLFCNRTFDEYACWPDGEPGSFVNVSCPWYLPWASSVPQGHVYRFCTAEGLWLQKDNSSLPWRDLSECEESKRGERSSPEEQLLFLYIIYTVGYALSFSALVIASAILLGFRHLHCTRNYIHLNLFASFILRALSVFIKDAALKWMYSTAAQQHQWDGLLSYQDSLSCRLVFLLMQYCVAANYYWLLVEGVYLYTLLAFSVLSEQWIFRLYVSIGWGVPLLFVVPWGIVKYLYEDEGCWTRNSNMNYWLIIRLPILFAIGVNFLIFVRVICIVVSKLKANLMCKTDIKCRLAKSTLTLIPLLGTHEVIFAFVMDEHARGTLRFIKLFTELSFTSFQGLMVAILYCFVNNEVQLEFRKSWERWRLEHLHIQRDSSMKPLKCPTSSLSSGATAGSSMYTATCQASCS", "assay": "Flow cytometry cell binding, HEK293/CRE-Luc/hGLP1R (Example 18)", "settings": "Table 30, no unit printed in table (text b1840 reads values as M), experiments A, C, D", "experimental": "GLP1R agonist linker payloads were conjugated to anti-GLP1R antibodies via N-terminal heavy or light chain Glutamine (Q) tags. […] The cell surface binding of the anti-GLP1R ATDCs to human GLP1R (HEK293/CRE-Luc/hGLP1R), cynomolgus GLP1R (HEK293/CRE-Luc/mfGLP1R), and control cells lacking expression of GLP1R (HEK293/CRE-Luc) was assessed via flow cytometry. […] The last well in each row of the plate served as a blank control containing only secondary antibody and was plotted as a continuation of the 3-fold serial dilution. […] Samples were filtered through Pall 96 well plate PP/PE mesh filter system and collected in Costar 96 well plate. Samples were run on the iQue flow cytometer (Intellicyte) and results were analyzed using Forecyte analysis software (Intellicyte) to calculate the mean fluorescent intensity (MFI) after gating for live cells. EC50 values were determined using a four-parameter logistic equation over a 10-point dose response curve (GraphPad Prism). The signal to noise (S/N) was determined by taking the ratio of the highest MFI on the dose response curve to the MFI in the secondary alone wells."}},
  "data": [
    {"molecule": "B1", "values": [
      {"measurement": "Ka", "setting": "[1]; hGLP1R-MMH", "result": 61900, "unit": "M⁻¹ s⁻¹"},
      {"measurement": "dissociation rate constant (kd)", "setting": "[1]; hGLP1R-MMH", "result": 0.000211, "unit": "s⁻¹"},
      {"measurement": "EC50", "setting": "HEK293/CRE-Luc cells", "result": "> 100", "unit": "nM"},
      {"measurement": "HEK293/CRE-Luc Flow S/N", "setting": "HEK293/CRE-Luc cells", "result": 18.0}
    ]},
    {"molecule": "B2", "values": [
      {"measurement": "Ka", "setting": "[1]; hGLP1R-MMH", "result": 224000, "unit": "M⁻¹ s⁻¹"},
      {"measurement": "dissociation rate constant (kd)", "setting": "[1]; hGLP1R-MMH", "result": "7.74e-05", "unit": "s⁻¹"},
      {"measurement": "EC50", "setting": "HEK293/CRE-Luc cells", "result": "> 100", "unit": "nM"},
      {"measurement": "HEK293/CRE-Luc Flow S/N", "setting": "HEK293/CRE-Luc cells", "result": 11.8}
    ]},
    {"molecule": "B3", "values": [
      {"measurement": "90 nM hGLP1R.mmh Bound", "setting": "[1]; antibody captured on anti-human Fc surface, 90 nM hGLP1R-MMH", "result": 152.4, "unit": "RU"},
      {"measurement": "Ka", "setting": "[1]; hGLP1R-MMH", "result": 277000, "unit": "M⁻¹ s⁻¹"},
      {"measurement": "dissociation rate constant (kd)", "setting": "[1]; hGLP1R-MMH", "result": 0.000189, "unit": "s⁻¹"},
      {"measurement": "Kd", "setting": "[1]; hGLP1R-MMH, calculated from the kinetic rates", "result": 0.681, "unit": "nM"},
      {"measurement": "EC50", "setting": "human GLP1R", "result": 0.769, "unit": "nM"}
    ]}
  ]
}
